Source: patent publication US20140051645A1 (Pieris, published 2014)

B1: hNGALM3 (designed binder)
chain: QDSTSDLIPAPPLSKVPLQQNFQDNQFHGKWYVVGLAGNRILRQDQHPMLMYATIYELKGDKSYNVTSVISSHKKCLYPIATFVPGSQPGEFTLGNIKSYGDKVSYLVRVVSTDYNQYAVVFFKHADTNYESFSITIYGRTKELASELKENFIRFSKSLGLPENHIVFPVPIDQCIDGSAWSHPQFEK
B2: hNGALM2 (designed binder)
chain: QDSTSDLIPAPPLSKVPLQQNFQDNQFHGKWYVVGLAGNRLLRDDQHPMDMYATIYELKGDKSYNVTSVISSHKKCLYPIATFVPGSQPGEFTLGNIKSYGDKWSYLVRVVSTDYNQYAVVFFKHADTNYESFSITIYGRTKELASELKENFIRFSKSLGLPENHIVFPVPIDQCIDGSAWSHPQFEK
B3: hNGALM5 (designed binder)
chain: QDSTSDLIPAPPLSKVPLQQNFQDNQFHGKWYVVGLAGNRILRSDQHPMRMYATIYELKGDKSYNVTSVISSHKKCLYTIATFVPGSQPGEFTLGNIKSYGDKWSYLVRVVSTDYNQYAVVFFKHADTNYESFSITIYGRTKELASELKENFIRFSKSLGLPENHIVFPVPIDQCIDGSAWSHPQFEK
B4: hNGALM6 (designed binder)
chain: QDSTSDLIPAPPLSKVPLQQNFQDNQFHGKWYVVGLAGNRILRSDQHPMPMYATIYELKGDKSYNVTSVISSHKKCLYSIATFVPGSQPGEFTLGNIKSYGDKESYLVRVVSTDYNQYAVVFFKYASDNDESFSITIYGRTKELASELKENFIRFSKSLGLPENHIVFPVPIDQCIDGSAWSHPQFEK
B5: hNGALM7 (designed binder)
chain: QDSTSDLIPAPPLSKVPLQQNFQDNQFHGKWYVVGLAGNRILRLDQHPMPMYATIYELKGDKSYNVTSVISSHKKCLYPIATFVPGSQPGEFTLGNIRSYGDKTSYLVRVVSTDYNQYAVVFFKHADTNYESFSITIYGRTKELASELKENFIRFSKSLGLPENHIVFPVPIDQCIDGSAWSHPQFEK
B6: hNGALM4 (designed binder)
chain: QDSTSDLIPAPPLSKVPLQQNFQDNQFHGKWYVVGLAGNRILRDDQHPMPMYATIYELKGDKSYNVTSVISSHKKCLYPIATFVPGSQPGEFTLGNIKSYGDKWSYLVRVVSTDYNQYAVVFFKHADSNYESFSITIYGRTKELASELKENFIRFSKSLGLPENHIVFPVPIDQCIDG
B7: SEQ ID NO 14 (designed binder)
chain: MASMTGGQQMGQDSTSDLIPAPPLSKVPLQQNFQDNQFHGKWYVVGLAGNRILRDDQHPMPMYATIYELKGDKSYNVTSVISSHKKCLYPIATFVPGSQPGEFTLGNIKSYGDKWSYLVRVVSTDYNQYAVVFFKHADSNYESFSITIYGRTKELASELKENFIRFSKSLGLPENHIVFPVPIDQCIDG
notes: Screening construct in crude E. coli lysate, with T7 tag, mutein and Strep-tag II
B8: SEQ ID NO 13 (designed binder)
chain: MASMTGGQQMGQDSTSDLIPAPPLSKVPLQQNFQDNQFHGKWYVVGLAGNRILRQDQHPMLMYATIYELKGDKSYNVTSVISSHKKCLYPIATFVPGSQPGEFTLGNIKSYGDKVSYLVRVVSTDYNQYAVVFFKHADTNYESFSITIYGRTKELASELKENFIRFSKSLGLPENHIVFPVPIDQCIDG
notes: as for B7
B9: SEQ ID NO 15 (designed binder)
chain: MASMTGGQQMGQDSTSDLIPAPPLSKVPLQQNFQDNQFHGKWYVVGLAGNRILRSDQHPMRMYATIYELKGDKSYNVTSVISSHKKCLYTIATFVPGSQPGEFTLGNIKSYGDKWSYLVRVVSTDYNQYAVVFFKHADTNYESFSITIYGRTKELASELKENFIRFSKSLGLPENHIVFPVPIDQCIDG
notes: as for B7
B10: SEQ ID NO 16 (designed binder)
chain: MASMTGGQQMGQDSTSDLIPAPPLSKVPLQQNFQDNQFHGKWYVVGLAGNRILRSDQHPMPMYATIYELKGDKSYNVTSVISSHKKCLYSIATFVPGSQPGEFTLGNIKSYGDKESYLVRVVSTDYNQYAVVFFKYASDNDESFSITIYGRTKELASELKENFIRFSKSLGLPENHIVFPVPIDQCIDG
notes: as for B7
B11: SEQ ID NO 17 (designed binder)
chain: MASMTGGQQMGQDSTSDLIPAPPLSKVPLQQNFQDNQFHGKWYVVGLAGNRILRLDQHPMPMYATIYELKGDKSYNVTSVISSHKKCLYPIATFVPGSQPGEFTLGNIRSYGDKTSYLVRVVSTDYNQYAVVFFKHADTNYESFSITIYGRTKELASELKENFIRFSKSLGLPENHIVFPVPIDQCIDG
notes: as for B7

Tests used:
[1] = target: T1, human CTLA-4 on transfected CHO-K1 cells (human, UniProt P16410 36-223); assay: competition FACS on human CTLA4-transfected CHO-K1 cells; blocked ligand: biotinylated human B7.1 at 10 nM, detected with streptavidin-phycoerythrin
T1 construct: whole, on cells; also called human CTLA4-transfected CHO cells; CTLA-4 expressing CHO cells
T1 sequence (looked up): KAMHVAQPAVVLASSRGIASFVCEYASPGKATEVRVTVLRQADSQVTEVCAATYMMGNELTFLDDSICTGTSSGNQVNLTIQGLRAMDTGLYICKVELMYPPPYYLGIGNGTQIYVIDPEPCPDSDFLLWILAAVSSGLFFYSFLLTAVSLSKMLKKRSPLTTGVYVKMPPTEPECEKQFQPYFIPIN

[2] = target: T2, human CTLA-4-Fc (Chimerigen) (human, UniProt P16410 36-161, limits assumed); assay: SPR, Biacore T100, 25 C; CTLA4-Fc captured on anti-human IgG-Fc, mutein as analyte; 1:1 Langmuir fit
T2 construct: Bought fusion protein; also called hCTLA4-Fc; not shown: It was captured by an anti-human IgG-Fc antibody
T2 sequence (looked up): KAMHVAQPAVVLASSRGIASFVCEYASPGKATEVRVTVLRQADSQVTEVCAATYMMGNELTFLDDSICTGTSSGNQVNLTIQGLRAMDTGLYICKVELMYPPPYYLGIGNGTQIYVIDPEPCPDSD
Procedure: (§1) Real time affinity analysis was performed at 25° C. using a Biacore T100 system (GE Healthcare). Anti-human IgG-Fc antibody (Jackson ImmounoResearch Laboratories) was immobilized on a CM5 sensor chip using standard amine coupling chemistry, resulting in a ligand density of 8000 resonance units (RU). […] Subsequently, the Lcn2 muteins (SEQ ID: No 12 to SEQ ID NO: 17) were applied in an appropriate dilution series in HBS-EP at a flow rate of 30 μl/min. Regeneration of the derivatized chip surface was achieved by a combination of first basic (2.5 mM NaOH) and then acidic (10 mM glycine, pH 1.5) buffer, each for 8 and 16 s, respectively. […] To correct for buffer effects and baseline drift, double referencing was used throughout. Kinetic data evaluation was performed using the Biacore T100 Evaluation Software (v. 2.0.1) using the Langmuir 1:1 binding model and global fitting.

[3] = target: T3, murine CTLA4-Fc (R&D Systems) (mouse, UniProt P09793 36-162, limits assumed); assay: as above
T3 construct: Bought fusion protein; also called mouse CTLA4; not shown: It was captured by an anti-human IgG-Fc antibody
Procedure: as §1

[4] = target: T1, human CTLA-4 on transfected CHO-K1 cells; assay: competition FACS on human CTLA4-transfected CHO-K1 cells; competitor biotinylated human B7.1 at 10 nM
Procedure: Different concentrations of the Lcn2 muteins or, as a positive control, of the antibody BNI3 (BD Bioscience) were mixed with recombinant biotinylated human B7.1 (Ancell) at 10 nM final concentration and added to 100 000 of the CTLA-4 transfected CHO-K1 cells which were generated according to the description in example 16 of PCT/EP 2005/012640. Samples were incubated at 4° C. for 2 h, washed twice in PBS containing 2% w/v BSA, and detection of bound B7.1 was accomplished by incubation with streptavidin-phycoerythrin for 30 min at 4° C. Mean fluorescence intensities were determined by flow cytometry and fitted to a sigmoidal dose response model using Prism (GraphPad) as depicted in FIG. 4 to determine EC50 values for Lcn2 muteins from sequences of SEQ ID NO: 12 to SEQ ID NO: 17 which are summarized in Table 3.

[5] = target: T2, human CTLA-4-Fc (Chimerigen); assay: screening ELISA of crude lysates: mutein captured by T7 mAb, limited soluble human CTLA4-Fc; in some cases competition ELISA with mAb BNI3
Procedure: Therein, NGAL variants equipped with a T7 detection tag (Novagen) as well as a Strep-tag II affinity tag (IBA) were soluble expressed in a 96 well microtiter plate using the E. coli strain TG1/F with phNGAL37 SEQ ID NO: 10. This vector corresponds to phNGAL15 SEQ ID NO: 11 as described in the following example 4 with an N-terminal T7 tag consisting of 11 amino acids ([…]). Lipocalin mutein expression was induced overnight at 22° C. at 700 rpm with anhydrotetracycline (0.2 μg/ml) at an OD₅₅₀ of 0.6. Afterwards, cells were lysed (100 mM Na-borate, pH 8.0, 80 mM NaCl, 1 mM EDTA, 0.025% w/v lysozyme) for 1 h under agitation. To minimize non-specific binding in the subsequent ELISA screen, the crude cell lysates were supplemented with 2% w/v BSA and 0.1% v/v Tween 20 and tested in ELISA for binding to human CTLA-4-Fc (Chimerigen).
In a reverse ELISA approach soluble expressed muteins from the crude cell lysate were captured via immobilized T7 mAb (5 μg/ml, Novagen) on wells of black Fluotrac 600 ELISA plates (Greiner; 384 well). Neutravidin, 5 μg/ml, and 3% milk were used as negative control. […] Subsequently plates were washed five times and bound target was detected via an goat anti-human Fc monoclonal antibody-HRP conjugate (Jackson ImmunoResearch), diluted 1:5.000 in PBST/0.1. Therefore, QuantaBlu™ (Pierce; 1:2 diluted in PBS/T 0.1%) was used as fluorogenic HRP substrate. After 45 min of signal development at room temperature fluorescence was excited at a wavelength of 320 nm (±12.5 nm) and measured at 430 nm (±17.5 nm) in a GENiosPlus plate reader (Tecan).
In some cases a competition ELISA was carried out where CTLA4-Fc (2.5 μg/ml) was captured in ELISA plates via an immobilized mouse anti-human IgG Fc Gamma fragment-specific antibody (Jackson ImmunoResearch (5 μg/ml) and incubated for 1 h with a pre-mixture of the mutein extracts and different concentrations of a competitive CTLA4-specific mAb BNI3 (BD Bioscience) at concentrations of 30, 100, and 200 nM, respectively.

Molecule | IC50 (read off the curve) [1] | Kd [2] | koff [2] | kon [2] | Kd [3] | koff [3] | kon [3] | EC50 [4] | binding result [5]
BNI3 (antibody) | 3 nM | – | – | – | – | – | – | – | –
B1 | – | 0.46 nM | 0.000194 s⁻¹ | 422000 M⁻¹ s⁻¹ | 0.672 nM | 0.000134 s⁻¹ | 199000 M⁻¹ s⁻¹ | 7.6 nM | –
B2 | – | 0.686 nM | 0.000388 s⁻¹ | 565000 M⁻¹ s⁻¹ | 3.05 nM | 0.000907 s⁻¹ | 298000 M⁻¹ s⁻¹ | 6 nM | –
B3 | – | 0.74 nM | 0.000281 s⁻¹ | 380000 M⁻¹ s⁻¹ | 0.32 nM | 0.000261 s⁻¹ | 813000 M⁻¹ s⁻¹ | 9 nM | –
B4 | – | 0.588 nM | 0.000197 s⁻¹ | 335000 M⁻¹ s⁻¹ | 66.1 nM | 4.21 s⁻¹ | 6.36e+07 M⁻¹ s⁻¹ | 10.3 nM | –
B5 | – | 0.659 nM | 0.000517 s⁻¹ | 784000 M⁻¹ s⁻¹ | 0.413 nM | 0.000108 s⁻¹ | 261000 M⁻¹ s⁻¹ | 11 nM | –
B6 | – | 0.346 nM | 0.000186 s⁻¹ | 539000 M⁻¹ s⁻¹ | 0.584 nM | 0.000129 s⁻¹ | 221000 M⁻¹ s⁻¹ | 9.5 nM | –
B7 | – | – | – | – | – | – | – | – | binds
B8 | – | – | – | – | – | – | – | – | binds
B9 | – | – | – | – | – | – | – | – | binds
B10 | – | – | – | – | – | – | – | – | binds
B11 | – | – | – | – | – | – | – | – | binds
